Experimental data from patent US7087392B2, “Antiproliferative SgK reagents and methods” (The Regents of the University of California, priority 1999, dated 2006).

Experiments:
[1] = tested on: mammary epithelial cells; test: Co-staining for ectopically expressed Sgk and apoptotic cells (TUNEL fluorescence assay); format: cell-based; conditions: after hyperosmotic stress, ectopic expression
[2] = tested on: mammary tumor cells; test: Transient cell foci growth assay of transfected mammary tumor cells; format: cell-based; conditions: transfected expression vector, G418 selection
Description: Functional evidence for a direct role of sgk in the glucocorticoid anti-proliferative pathway. In both the Con8 mammary epithelial tumor cells (from which Sgk was originally cloned) as well as human MCF-7 breast cancer cells (which were originally derived from a pleural effusion of a metastatic human breast adenocarcinoma) glucocorticoids induce a G1 block in cell cycle progression and strongly stimulate sgk transcript and protein production. […] To initially test whether Sgk has an anti-proliferative function and perhaps mediates the glucocorticoid growth inhibitory response, the full length rat or human wild type sgk cDNA was inserted downstream of the cytomegalovirus (CMV) promoter in an expression vector that also encodes the neomycin resistance gene. […] Transfection competent cells were selected in 0.5 mg/ml of the G418 neomycin derivative for two weeks.
Expression vectors encoding several point mutants or truncations of Sgk were transfected into the mammary tumor cells and cell growth monitored by the cell foci assay.
Transient transfection and rapid screen of the sgk expression vectors for the anti-proliferative response in rodent and human mammary tumor cells. A transient cell foci growth assay is employed to rapidly screen the various Sgk constructs to define the domains that mediate the anti-proliferative response in rat and human mammary tumor cells using our optimized conditions. The advantage of this assay is that many different mutant Sgk expression vectors can be simultaneously compared for their growth inhibitory effects. Also, this assay can be used to rapidly assess the proliferative effects of combinations of Sgk and its interacting proteins or substrates. Populations of human MCF-7 breast cancer cells or rat Con8 mammary tumor cells are transfected by the lipofectin transfection procedures and cultured in normally cytotoxic concentrations (750 μg/ml) of the G418 neomycin derivative to recover transfection competent cells. Approximately 5000 transfected cells are cultured as colonies on plastic, and after one to two weeks are fixed and stained in crystal violet/formalin to visualize the cell colonies. The effects on cell proliferation are quantitated by simply counting the resulting cell colonies or by scanning the total cell density on each plate. To provide a control for the fidelity of the cell foci assays, in each experiment, cells transfected with the control vectors (no Sgk sequences) are treated with or without 1 μM dexamethasone because the cells are growth suppressed by this synthetic glucocorticoid. […]

B1: K127M: Sgk with lysine 127 in the ATP binding domain substituted with methionine; kinase dead (protein, UniProt O00141 1-431, looked up, variant K127M)
Serine/threonine-protein …: MTVKTEAAKGTLTYSRMRGMVAILIAFMKQRRMGLNDFIQKIANNSYACKHPEVQSILKISQPQEPELMNANPSPPPSPSQQINLGPSSNPHAKPSDFHFLKVIGKGSFGKVLLARHKAEEVFYAVMVLQKKAILKKKEEKHIMSERNVLLKNVKHPFLVGLHFSFQTADKLYFVLDYINGGELFYHLQRERCFLEPRARFYAAEIASALGYLHSLNIVYRDLKPENILLDSQGHIVLTDFGLCKENIEHNSTTSTFCGTPEYLAPEVLHKQPYDRTVDWWCLGAVLYEMLYGLPPFYSRNTAEMYDNILNKPLQLKPNITNSARHLLEGLLQKDRTKRLGAKDDFMEIKSHVFFSLINWDDLINKKITPPFNPNVSGPNDLRHFDPEFTEEPVPNSIGKSPDSVLVTASVKEAAEAFLGFSYAPPTDSFL
correlation between Sgk positive and TUNEL positive cells [1]: ~55%
reduction in number of cell foci compared to the vector control [2]: ~2.5 fold
